Assay results: patent publication US20090285840A1, “METHODS FOR TREATING PATHOLOGICAL NEOVASCULARIZATION” (New York Society for the Ruptured and Crippled Maintaining …, priority 2008, published 2009)

Key:
[1] = system: ADAM9; assay: ADAM9 expression in mouse embryonic fibroblasts treated with H2O2 (immunoblot); type: cell-based; conditions: MEF cells from wildtype mice, H2O2 200 μM (highest concentration), 6 hrs
[2] = system: EphB4; assay: Alkaline phosphatase shedding assay of transiently expressed EphB4 in mouse embryonic fibroblasts treated with H2O2; type: cell-based
Experimental: Stimulation of ADAM9-dependent shedding. […] Alkaline phosphatase shedding assays were performed as described (Weskamp et al., 1996, Cell Biol. 132:717-726; Zheng et al., 2002, J. BioI. Chem. 277:42463-42470) in (mouse embryonic fibroblasts) MEF cells and in pig aortic endothelial cells (PAE cells, kindly provided by Dr. Shahin Rafii). Reactive oxygen species (ROS) assays were performed using a modified version of the procedure reported by Sung et al., 2006, Cancer Res 66:9519-26). Specifically, 20 hours post-transfection, cells maintained at 50-60% culture density were washed twice with OptiMem over the course of 1 hour. […] The resulting supernatants and lysates were collected and assayed in triplicate for alkaline phosphatase activity as described previously (Sahin et al., 2006, “A sensitive method to monitor ectodomain shedding of ligands of the epidermal growth factor receptor,” In Epidermal Growth Factor: Methods and Protocols, In P. J. B. and T. B. Patel eds., Vol. 327, p. 99-113., Humana Press Inc., Totowa, N.J.; Sahin et al., J. Cell Biol. 164:769779; Zheng et al., 2002, J. BioI. Chem. 277:42463-42470). All data presented here representative example from at least three independent assays.
The shedding of EphB4 from Adam9 −/− cells could be rescued by transfection with ADAM9, however, the resulting activity could not be further enhanced by treatment with H2O2. […]

[3] = target: alkaline phosphatase tagged Tie-2 (amino acids 580-833) (UniProt Q02858)
Sequence of UniProt Q02858 (Q02858 580-833): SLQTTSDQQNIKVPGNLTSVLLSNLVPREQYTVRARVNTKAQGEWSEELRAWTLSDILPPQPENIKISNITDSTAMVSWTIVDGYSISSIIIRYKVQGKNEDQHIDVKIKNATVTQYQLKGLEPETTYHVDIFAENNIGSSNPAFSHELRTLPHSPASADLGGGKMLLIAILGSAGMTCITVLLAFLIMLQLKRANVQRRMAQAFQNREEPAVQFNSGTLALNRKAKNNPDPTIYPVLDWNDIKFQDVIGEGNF

[4] = target: alkaline phosphatase tagged EphrinB2 (UniProt P05187)
[5] = target: alkaline phosphatase tagged ICAM-1 (amino acids 26-532) (UniProt P13597)
Sequence of UniProt P13597 (P13597 26-532): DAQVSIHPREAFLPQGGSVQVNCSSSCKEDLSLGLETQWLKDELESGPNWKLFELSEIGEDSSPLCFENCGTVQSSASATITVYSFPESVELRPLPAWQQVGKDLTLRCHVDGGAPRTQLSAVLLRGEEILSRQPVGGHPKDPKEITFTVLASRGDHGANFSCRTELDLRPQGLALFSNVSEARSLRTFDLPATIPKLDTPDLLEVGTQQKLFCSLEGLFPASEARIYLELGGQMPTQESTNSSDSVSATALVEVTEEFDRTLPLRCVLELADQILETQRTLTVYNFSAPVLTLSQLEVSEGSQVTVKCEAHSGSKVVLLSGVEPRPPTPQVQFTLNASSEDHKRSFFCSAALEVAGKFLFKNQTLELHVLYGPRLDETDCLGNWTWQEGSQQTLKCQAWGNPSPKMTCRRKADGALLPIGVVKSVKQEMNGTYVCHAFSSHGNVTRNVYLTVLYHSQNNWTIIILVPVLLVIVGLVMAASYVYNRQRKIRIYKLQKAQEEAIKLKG

[6] = target: T1, alkaline phosphatase tagged E-Selectin (amino acids 31-612) (UniProt Q00690)
T1 sequence: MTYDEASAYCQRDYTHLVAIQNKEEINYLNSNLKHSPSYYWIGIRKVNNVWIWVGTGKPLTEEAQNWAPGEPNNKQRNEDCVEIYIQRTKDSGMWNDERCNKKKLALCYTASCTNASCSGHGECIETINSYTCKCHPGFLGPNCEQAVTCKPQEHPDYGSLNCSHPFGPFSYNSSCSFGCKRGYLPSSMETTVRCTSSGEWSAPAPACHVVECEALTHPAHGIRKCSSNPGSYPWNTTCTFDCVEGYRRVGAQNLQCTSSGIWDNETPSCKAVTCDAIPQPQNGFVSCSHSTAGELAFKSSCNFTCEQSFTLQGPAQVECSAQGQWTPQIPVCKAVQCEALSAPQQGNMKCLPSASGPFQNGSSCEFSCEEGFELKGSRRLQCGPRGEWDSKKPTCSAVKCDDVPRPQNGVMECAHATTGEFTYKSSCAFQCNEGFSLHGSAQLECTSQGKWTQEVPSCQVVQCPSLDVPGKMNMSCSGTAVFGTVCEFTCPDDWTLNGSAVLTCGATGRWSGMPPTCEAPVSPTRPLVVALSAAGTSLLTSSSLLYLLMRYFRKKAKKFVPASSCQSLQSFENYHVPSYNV

[7] = target: T2, alkaline phosphatase tagged CD34 (amino acids 31-385) (UniProt Q64314)
T2 sequence: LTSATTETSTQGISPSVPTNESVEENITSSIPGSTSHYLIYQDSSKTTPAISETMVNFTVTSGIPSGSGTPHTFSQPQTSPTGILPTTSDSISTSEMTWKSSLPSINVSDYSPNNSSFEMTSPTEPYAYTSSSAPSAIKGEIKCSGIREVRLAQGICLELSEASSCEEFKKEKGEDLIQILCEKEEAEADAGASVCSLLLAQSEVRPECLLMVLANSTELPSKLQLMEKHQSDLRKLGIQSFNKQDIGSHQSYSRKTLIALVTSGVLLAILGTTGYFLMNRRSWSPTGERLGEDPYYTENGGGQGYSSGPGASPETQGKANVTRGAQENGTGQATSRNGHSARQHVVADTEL

[8] = target: alkaline phosphatase tagged CD36 (UniProt P05187)
[9] = target: alkaline phosphatase tagged VE-Cadherin (UniProt P05187)
[10] = target: alkaline phosphatase tagged CD40 (amino acids 24-278) (UniProt P27512)
Sequence of UniProt P27512 (P27512 24-278): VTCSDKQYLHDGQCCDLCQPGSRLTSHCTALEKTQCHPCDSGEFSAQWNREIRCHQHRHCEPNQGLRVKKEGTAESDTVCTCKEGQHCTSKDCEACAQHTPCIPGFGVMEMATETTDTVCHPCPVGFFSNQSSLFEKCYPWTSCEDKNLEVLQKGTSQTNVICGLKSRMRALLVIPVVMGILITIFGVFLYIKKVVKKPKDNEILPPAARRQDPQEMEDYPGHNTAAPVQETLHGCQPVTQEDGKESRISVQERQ

[11] = target: alkaline phosphatase tagged EphB4 (UniProt P05187)
[12] = target: T3, alkaline phosphatase tagged VCAM-1 (amino acids 28-739) (UniProt P29533)
T3 sequence: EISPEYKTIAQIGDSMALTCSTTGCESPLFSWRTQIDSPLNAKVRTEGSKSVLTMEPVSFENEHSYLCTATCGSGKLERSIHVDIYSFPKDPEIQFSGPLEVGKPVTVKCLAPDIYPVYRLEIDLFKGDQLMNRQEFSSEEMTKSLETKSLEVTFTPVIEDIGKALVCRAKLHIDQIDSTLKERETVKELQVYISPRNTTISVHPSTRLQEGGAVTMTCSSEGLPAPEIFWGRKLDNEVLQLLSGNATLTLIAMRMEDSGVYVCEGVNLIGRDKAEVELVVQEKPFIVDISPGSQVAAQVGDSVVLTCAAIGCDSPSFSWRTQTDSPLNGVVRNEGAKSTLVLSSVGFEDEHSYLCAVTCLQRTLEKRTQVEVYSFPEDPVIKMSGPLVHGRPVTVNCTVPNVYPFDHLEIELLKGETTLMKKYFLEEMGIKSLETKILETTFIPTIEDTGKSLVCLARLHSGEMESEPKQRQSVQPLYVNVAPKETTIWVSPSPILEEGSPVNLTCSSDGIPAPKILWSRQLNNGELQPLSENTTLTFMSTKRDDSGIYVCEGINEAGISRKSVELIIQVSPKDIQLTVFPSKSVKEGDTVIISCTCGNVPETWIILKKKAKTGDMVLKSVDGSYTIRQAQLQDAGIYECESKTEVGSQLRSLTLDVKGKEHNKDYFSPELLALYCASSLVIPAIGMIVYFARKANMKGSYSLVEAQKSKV

[13] = target: alkaline phosphatase tagged FLK-1 (amino acids 605-859) (UniProt P35918)
Sequence of UniProt P35918 (P35918 605-859): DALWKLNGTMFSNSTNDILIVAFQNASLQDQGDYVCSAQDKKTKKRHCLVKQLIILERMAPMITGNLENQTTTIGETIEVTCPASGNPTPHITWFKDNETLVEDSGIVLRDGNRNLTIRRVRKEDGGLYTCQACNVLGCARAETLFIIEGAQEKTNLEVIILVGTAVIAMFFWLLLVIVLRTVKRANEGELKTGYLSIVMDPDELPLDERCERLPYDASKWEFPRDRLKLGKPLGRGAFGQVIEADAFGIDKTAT

Sequence of ADAM9 (wild type, overexpressed from an expression construct) (Q13443 whole entry): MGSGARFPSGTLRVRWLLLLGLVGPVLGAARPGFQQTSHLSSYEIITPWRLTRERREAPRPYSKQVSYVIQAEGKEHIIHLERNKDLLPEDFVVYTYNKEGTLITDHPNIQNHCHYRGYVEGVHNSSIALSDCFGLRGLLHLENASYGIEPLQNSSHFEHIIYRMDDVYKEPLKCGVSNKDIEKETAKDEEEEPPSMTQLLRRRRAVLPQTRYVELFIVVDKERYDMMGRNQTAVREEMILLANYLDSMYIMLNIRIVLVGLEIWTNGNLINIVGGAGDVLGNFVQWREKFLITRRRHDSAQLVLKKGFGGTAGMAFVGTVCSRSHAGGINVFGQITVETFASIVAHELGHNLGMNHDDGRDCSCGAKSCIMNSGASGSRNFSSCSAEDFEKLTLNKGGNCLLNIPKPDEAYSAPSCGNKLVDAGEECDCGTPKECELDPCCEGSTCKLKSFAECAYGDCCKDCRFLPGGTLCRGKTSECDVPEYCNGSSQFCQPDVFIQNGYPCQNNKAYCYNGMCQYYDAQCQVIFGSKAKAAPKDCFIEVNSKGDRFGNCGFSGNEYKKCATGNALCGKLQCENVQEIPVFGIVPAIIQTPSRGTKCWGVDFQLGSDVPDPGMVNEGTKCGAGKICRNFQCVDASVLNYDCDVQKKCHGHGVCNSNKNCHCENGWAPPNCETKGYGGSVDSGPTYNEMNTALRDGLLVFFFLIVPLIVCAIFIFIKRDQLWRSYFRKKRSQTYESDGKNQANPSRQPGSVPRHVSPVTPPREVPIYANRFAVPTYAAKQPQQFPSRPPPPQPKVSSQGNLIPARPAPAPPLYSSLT

| EphB4 shedding ([2]; Adam9 −/− cells expressing EphB4, 100 or 200 μM H2O2) | shedding of transiently expressed EphB4 ([2]; wt MEF cells, 100 or 200 μM H2O2 for 6 hrs) | Compound | ADAM9 expression [1] | shedding (alkaline phosphatase activity released into the supernatant) [3] | shedding (alkaline phosphatase activity released into the supernatant) [4] | shedding (alkaline phosphatase activity released into the supernatant) [5] | shedding (alkaline phosphatase activity released into the supernatant) [6] | shedding (alkaline phosphatase activity released into the supernatant) [7] | shedding (alkaline phosphatase activity released into the supernatant) [8] | shedding (alkaline phosphatase activity released into the supernatant) [9] | shedding (alkaline phosphatase activity released into the supernatant) [10] | shedding (alkaline phosphatase activity released into the supernatant) [11] | shedding (alkaline phosphatase activity released into the supernatant) [12] | shedding (alkaline phosphatase activity released into the supernatant) [13] |
| --- | --- | --- | --- | --- | --- | --- | --- | --- | --- | --- | --- | --- | --- | --- |
| no increase in EphB4 shedding | strong increase in the shedding | OO [H2O2] | increase in ADAM9 expression |  |  |  |  |  |  |  |  |  |  |  |
|  |  | ADAM9 (wild type, overexpressed from an expression construct) |  | overexpression of ADAM9 increased the shedding of CD40, EphB4, Flk1, Tie-2, VE-cadherin and VCAM compared to cells overexpressing ADAM9 E>A together with these substrates | Overexpression of ADAM9 did not increase the shedding of E-selectin, ICAM-1, Ephrin B2, CD34 and CD36 compared to ADAM9 E>A, at least under the conditions used here | Overexpression of ADAM9 did not increase the shedding of E-selectin, ICAM-1, Ephrin B2, CD34 and CD36 compared to ADAM9 E>A, at least under the conditions used here | Overexpression of ADAM9 did not increase the shedding of E-selectin, ICAM-1, Ephrin B2, CD34 and CD36 compared to ADAM9 E>A, at least under the conditions used here | Overexpression of ADAM9 did not increase the shedding of E-selectin, ICAM-1, Ephrin B2, CD34 and CD36 compared to ADAM9 E>A, at least under the conditions used here | Overexpression of ADAM9 did not increase the shedding of E-selectin, ICAM-1, Ephrin B2, CD34 and CD36 compared to ADAM9 E>A, at least under the conditions used here | overexpression of ADAM9 increased the shedding of CD40, EphB4, Flk1, Tie-2, VE-cadherin and VCAM compared to cells overexpressing ADAM9 E>A together with these substrates | overexpression of ADAM9 increased the shedding of CD40, EphB4, Flk1, Tie-2, VE-cadherin and VCAM compared to cells overexpressing ADAM9 E>A together with these substrates | overexpression of ADAM9 increased the shedding of CD40, EphB4, Flk1, Tie-2, VE-cadherin and VCAM compared to cells overexpressing ADAM9 E>A together with these substrates | overexpression of ADAM9 increased the shedding of CD40, EphB4, Flk1, Tie-2, VE-cadherin and VCAM compared to cells overexpressing ADAM9 E>A together with these substrates | overexpression of ADAM9 increased the shedding of CD40, EphB4, Flk1, Tie-2, VE-cadherin and VCAM compared to cells overexpressing ADAM9 E>A together with these substrates |
